Measured values published in patent US10000749B2, “Valencene synthase polypeptides, encoding nucleic acid molecules and uses thereof” (Evolva, Inc., priority 2013, dated 2018).
Entries after “also recorded” stand apart in the source; their conditions may differ.

B1: EgVS: Eryngium glaciale valencene synthase, amino acid sequence SEQ ID NO:1; His-tagged at the C-terminus for kinetics (protein)
chain: MSLNVLSTSGSAPTTKSSEITRRSANYHPSLWGDKFLEYSSPDHLKNDSFTEKKHEQLKEEVKKMLVETVQKPQQQLNLINEIQRLGLSYLFEPEIEAALQEISVTYDEFCCSTDADDLHNVALSFRILREHGHNVSSDVFQKFMDSNGKLKDYLVNDARGLLSLYEATHFRVHNDDKLEELLSVTTSRLEHLKSHVKYPLEDEISRALKHPLHKELNRLGARYYISIYEKFDSHNKLLLEFAKLDFNRLQKMYQHELAHLTRWWKDLDFTNKLPFARDRIVEGYFWILGMYFEPERKDVREFLNRVFALITVVDDTYDVYGTFKELLLFTDAIERWGTSDLDQLPGYMRIIYQALMDVYNQMEEKLSMKADCPTYRLEFAIETVKAMFRSYLEEARWSKEHYIPSMEEYMTVALVSVGYKTILTNSFVGMGDIATREVFEWVFNSPLIIRASDLIARLGDDIGGHEEEQKKGDAATAIECYIKENHVTKHEAYDEFQKQIDNAWKDLNKEALRPFPVPMTFITRVVHFTRAIHVIYADFSDGYTRSDKAIRGYITSLLVDPIPL
modifications: C-terminal His tag; Eryngium glaciale; valencene synthase protein
notes: His-tagged at the C-terminus for kinetics

Legend:
ticks and mosquitoes = conditions: against ticks and mosquitoes; cited from earlier work
[1] = test system: Saccharomyces cerevisiae strain ALX11-30; assay: Shake flask assay of cells expressing valencene synthase; type: cell-based; conditions: FIG. 7, cells expressing the synthase
Method: Seed cultures were started in 250 mL flasks by inoculating 15 mL of SD or SDE medium (for ALX11-30 and ALX7-95 strains, respectively) with freshly growing colonies of the 7 strains shown in Table 5 above. The cultures were grown for 24 hours, and 2.5 mL of each culture were used to inoculate 50 mL of fermentation medium (2% ammonium sulfate, 2% potassium phosphate, 0.1% NaCl, 0.6% MgSO4.7H2O, 0.4% yeast extract, 1 mL mineral solution [FeSO4.7H2O 0.028%, ZnSO4.7H2O 0.029%, CuSO4.5H2O 0.008%, Na2MoO4.2H2O 0.024%, CoCl2.6H2O 0.024%, MnSO4.H2O 0.017%, HCl 1 mL], 0.5 mL 50% glucose, 1.5 mL vitamin solution [biotin 0.001%, Ca-pantothenate 0.012%, inositol 0.06%, pyridoxine-HCl 0.012%, thiamine-HCl 0.012%], and 0.5 mL 10% CaCl2) in a 250 mL baffled flask. The cultures were grown at 28° C. After 16 hours of incubation, the cultures were fed 3.6 mL of 50% glucose and 0.667 mL of 12.5% yeast extract. […] An aliquot of the organic phase was analyzed by gas chromatography and the amount of valencene produced was quantified by calculating the area under the peak representing valencene. […]
Table 6a below provides product distribution profiles including the amount of valencene produced from the shake flask assay, as determined by gas chromatography, of CVS 277 compared to two strains that produce EGVS in the ALX11-30 strain (as described in Example 3).

[2] = Steady state kinetic analysis of His-tag purified valencene synthases; type: biochemical
Method: In this example, the activity of E. glaciale valencene synthase (EgVS; SEQ ID NO:1) and of the citrus valencene synthase designated V277 (SEQ ID NO:31) were evaluated by steady state kinetic analysis. To compare the activities of these enzymes in vitro, the valencene synthases were Histidine-tagged at the C-terminus, expressed in E. coli, purified by nickel chelate chromatography, and evaluated for activity by steady state kinetic analysis. […] T=30C. Detection: GC/MS-SIM.

| Molecule | Repellent and insecticide effect (ticks and mosquitoes) | Valencene production in yeast compared to the CVS synthase ([1]; listed as EG synthase) | Valencene production in yeast compared to the CVS synthase ([1]; listed as EVS) | Turnover compared with valencene synthase V277 [2] | Total and specific activity compared with valencene synthase V277 ([2]; side-by-side comparison, FIG. 6) |
| --- | --- | --- | --- | --- | --- |
| C=C(C)[C@@H]1CCC2=CC(=O)C[C@@H](C)[C@]2(C)C1 [nootkatone, 4,4a,5,6,7,8-hexahydro-6-isopropenyl-4,4-a-dimethyl-2(3H)-naphthalenone] | effective repellent and insecticide |  |  |  |  |
| B1 |  | more than twice the amount of valencene | significantly greater | turned over significantly more times | dramatically higher total and specific activity; also recorded: exhibits greater activity |
